This is an account of results in paper PMC8119897.

For experiment [1], the target named is Fructose-1,6-bisphosphate aldolase FBA^P of Bacillus methanolicus MGA3 (encoded on plasmid pBM19) (Bacillus methanolicus MGA3). As to the kind of experiment: crystal structure; FBA^P crystallised by sitting-drop vapor diffusion at 8°C; reservoir 20% PEG 4000, 0.2 M imidazole/malate buffer pH 6; molecular replacement with PDB 3Q94.
Experiment [2] addresses Fructose-1,6-bisphosphate aldolase FBA^C of Bacillus methanolicus MGA3 (chromosomally encoded) (Bacillus methanolicus MGA3). In words: crystal structure; FBA^C crystallised by sitting-drop vapor diffusion at 20°C; reservoir 0.1 M sodium acetate trihydrate pH 4.5, 2.0 M ammonium sulfate; molecular replacement with PDB 3Q94.

The substance “Fructose-1,6-bisphosphate aldolase FBA^P of Bacillus methanolicus MGA3 (encoded on plasmid pBM19) (enzyme)” registered a stoichiometry N in experiment [1] of 4.

“Fructose-1,6-bisphosphate aldolase FBA^C of Bacillus methanolicus MGA3 (chromosomally encoded) (enzyme)” registered a stoichiometry N in experiment [2] of 4.

The term stoichiometry N denotes a count of units in the complex or per binding partner.
